The target of the data set is RPA heterotrimer (RPA1, RPA2, RPA3) (UniProt P27694;P15927;P35244 1-616;1-270;1-121). The data set is described as follows: EMSA; low PAR (lanes 3-4, from 8 ng) mixed with DNA before RPA; free DNA decreased; PBS, 20 ul, 20-23 C (room temperature), 30 min; 1% agarose gel in 0.5x TBE at 4 C; pH not stated. Particulars: protein: recombinant; copies: 1;1;1; label: 5' Cy5.5; single strand. (In general: In EMSA bound probe runs differently from free probe, usually more slowly.)

The values that follow come from paper PMC4081103, “PARG is dispensable for recovery from transient replicative stress but required to prevent detrimental accumulation of poly(ADP-ribose) upon prolonged replicative stress”.

Sequence of RPA heterotrimer (RPA1, RPA2, RPA3) (P27694 whole entry, chain 1 of 3): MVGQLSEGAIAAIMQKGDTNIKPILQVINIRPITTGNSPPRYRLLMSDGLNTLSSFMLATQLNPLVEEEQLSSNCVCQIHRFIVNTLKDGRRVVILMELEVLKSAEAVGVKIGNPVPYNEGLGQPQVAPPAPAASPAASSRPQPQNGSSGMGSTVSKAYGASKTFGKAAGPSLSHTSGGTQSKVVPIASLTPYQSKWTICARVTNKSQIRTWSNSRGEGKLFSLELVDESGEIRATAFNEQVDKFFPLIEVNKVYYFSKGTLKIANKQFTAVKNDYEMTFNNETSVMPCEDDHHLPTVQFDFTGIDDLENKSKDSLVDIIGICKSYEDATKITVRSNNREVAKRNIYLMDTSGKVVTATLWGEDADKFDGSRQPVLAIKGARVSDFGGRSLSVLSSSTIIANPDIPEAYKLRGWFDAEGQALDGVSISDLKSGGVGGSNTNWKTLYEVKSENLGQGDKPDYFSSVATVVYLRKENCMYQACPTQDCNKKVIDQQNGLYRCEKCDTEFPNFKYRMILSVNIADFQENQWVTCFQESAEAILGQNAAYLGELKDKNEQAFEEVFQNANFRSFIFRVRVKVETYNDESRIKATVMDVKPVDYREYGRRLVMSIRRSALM
Sequence of RPA heterotrimer (RPA1, RPA2, RPA3) (P15927 whole entry, chain 2 of 3): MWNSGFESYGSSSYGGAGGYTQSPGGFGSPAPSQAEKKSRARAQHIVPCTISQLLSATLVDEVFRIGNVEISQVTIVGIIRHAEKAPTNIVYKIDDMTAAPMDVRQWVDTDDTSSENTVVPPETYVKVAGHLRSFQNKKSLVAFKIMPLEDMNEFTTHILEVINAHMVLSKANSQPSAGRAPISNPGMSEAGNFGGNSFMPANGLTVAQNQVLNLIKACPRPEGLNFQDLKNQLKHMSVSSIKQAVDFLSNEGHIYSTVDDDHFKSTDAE
Sequence of RPA heterotrimer (RPA1, RPA2, RPA3) (P35244 whole entry, chain 3 of 3): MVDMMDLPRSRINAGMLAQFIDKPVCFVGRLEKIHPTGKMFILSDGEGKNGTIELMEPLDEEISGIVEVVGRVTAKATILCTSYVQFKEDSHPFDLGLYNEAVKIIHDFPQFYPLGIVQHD

In the case of TTTTTTTTTTTTTTTTTTTTTTTTTTTTTTTTTTTTTTTTTTTTTTTTTT (ssDNA) [Cy5.5-oligodT 50-mer], the binding result is given as “binds”.
